The nature of this data set: yeast display, Sf9 membrane polyspecificity reagent, FACS + sequencing; frameworks hold sequencing errors. Put shortly: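 Galactose induction of a Saccharomyces cerevisiae BJ5465 synthetic nanobody display library ran 36–48 hours. The cells were then stained for 1 hour at 4 °C with 10% biotinylated, detergent-solubilized Sf9 membrane reagent, pulled down on streptavidin microbeads and FACS-sorted into low and high (top ~1%) gates on expression and reagent-binding fluorescence. Labels for polyreactivity follow the gate of origin.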
In the case of “QVQLVESGGGLVQAGGSLRLSCAASGLTFVAYAMGWYRQAPGKERELVAAITRRGGSTYYADSVTGRFTISRDNAKNTVYLQMNSLKPEDTAVYYCAAEGSYSRNPGFDYWGQGTQVTVSS”, the “polyreactivity (PSR sort gate)” value was “high polyreactivity”.

Take “QVQLVESAGGLVQAGGSLSLSCAASASTFSSNAMGGYRQAPGKERELVAAITTSGGSTYYADSVKGRFTISRDNAKNTVYLQMNSLIPEDTAVYYCAADLVHAYQWSIFLYGYWGLGTQVTVSS”: the “polyreactivity (PSR sort gate)” value is on record as “low polyreactivity”.

As to “QVQLVESGGGLVQAGGSLRLSCAASGRIFWVNVMGWYRQGPGKERELVAAITRGASTYADSVKGRFTISRDNAKNTVYLQLNSLKPEDTAVYYCAADSKRRSIRYDYWGQGTQVTVSS”, the “polyreactivity (PSR sort gate)” value is listed as “high polyreactivity”.

In the case of “QVQLVESRGGLVQAGGSLRLSCAASGSIFYRYARGWYRQAPGKERELVAAITYSGGRTYYADSVKGRFTISRDNAKNTVYLQMNSLKPEDTAVYYCAAEKQSYGSPQGYDYWGQGTQVTVSS”, the “polyreactivity (PSR sort gate)” value is recorded as “low polyreactivity”.

Turning to “QVQLVESGGGLVQAGGSLRLSCAASGSIFSFYAMVWYRQAPGKERELVADISLTTDSTYADSVKGRFTISRDNAKNTVYLQMNSLKPEDTAVYYCAADFFGTITWYDYWGQGTQVTVSS”, the “polyreactivity (PSR sort gate)” value was “low polyreactivity”.

As to “QVQLVESGGGLVQAGGSLRLSCSASGSTFYVYAMGWYRQAPGKERELVAAITDSGGSTYYADSVKGRFTISRDNAKNTVYLQMNILKPEDTAVYYCAREYTYRYHYYYWGQGTQVTVSS”, the “polyreactivity (PSR sort gate)” value is “low polyreactivity”.

“QVQLVESGGGLVQAGGSLRLSCAASGITFRANAKGWYRQAPGKERELVAAISARGGSTYYADSVKGRFTISRDNAKNTVYLQMNSLNPEDTAVYYCAKELSQGMRYDYWGQGTQVTVSS”: the “polyreactivity (PSR sort gate)” value is listed as “high polyreactivity”.

Take “QVQLLESGGGLDQAGGSLRLSSAASGRTFGRNAMGWYRQAPGERELVAVISRGGSTYYADSVKGRFTISRDNAKNTVYLQMNSLKPEDTAVYYCNADTVYTRTAPYDYWGQGTQVTVSS”: the “polyreactivity (PSR sort gate)” value is “low polyreactivity”.

“QVQLVESGGGLVQAGGSLRLSCAASGRTFRKNVMGWYRQAPGKEREFVASISSSGSSTYYADSVKGRFTISRDYAKNTVYLQMNSLKPEDTAVYYCAARSVYATKRKYDYWGQGTQVTVSS”: the “polyreactivity (PSR sort gate)” value is “high polyreactivity”.

Turning to “QVQLVESGGGLVQAGGSLRLSCAASGRTFYYNGMGWYRQAPGKERELVATITNGGSTNYADSVKGRFTISRDNAKNTVYLQMNSLKPEDTAVYYCAKTLASDCYDYWGQGTQVTVSS”, the “polyreactivity (PSR sort gate)” value is listed as “low polyreactivity”.

In the case of “QVQLVESGGGLVQAGGSLRLSCAASGYIFLYYTMGWYRQAPGKERELVAAITIGGGTYYADSVKGRFTISRDNAKNTVYLQMNSLKPEDTAVYYCNADYASYYRYSRPLEMNYWGQGTQVTVSS”, the “polyreactivity (PSR sort gate)” value is recorded as “low polyreactivity”.

As for “QVQLVESGGGLVQAGGSLRLSCAASGRTFVDYVMGWYRQAPGKERELVAAISRSGSTYYADSVKGRFTISRDNAKNTVYLQMNSLKPEDTAVYYCAASSVALPWYVSWYVYGYEYWGQGTQVTVSS”, the “polyreactivity (PSR sort gate)” value was “low polyreactivity”.

Turning to “QVQLVESGGGLVQAGGSLRLSCAASGLIFVPYAMGWYRQAPGKERELVAAINSGATTYYADSVKGRFTISRDNAKNTVYLQMNSLKPEDTAVYYCAARSRFTESSRYYYWGQGTQVTVSS”, the “polyreactivity (PSR sort gate)” value is “high polyreactivity”.

On to “QVQLLESGGGLVQAGGSLRLSCASSGRTFVRYGMGWSRQAPGKERELVAAITGSGSRTYYADSVKGRFTISRDNAKNTVYLQMNSLIPKDTAVYYCAGRGQGGAGDPRYPVYYWGQGTQVTVSS”, for which the “polyreactivity (PSR sort gate)” value was “high polyreactivity”.

“QVQLVESVGGLVQAGGSLPLSCDASGSIFFYYAMGWSRHAPGKESELVAAIDFNGGTTYYADSVKGRFTISRDTAKITVYLQMNSLTPEDTAVYYCAAEWEGTYSTVPDEFNYWGQGTQVTVSS”: the “polyreactivity (PSR sort gate)” value is “high polyreactivity”.

On to “QVHLVESGGGLVQAGGSLRLSFAASGIILYDYAMGWNRQAPGKEREMVAGINRSGGITYYADSVKGRFTISRDNAKNTVYFQMNSLIPEDTAVYYCNAVFRYGATRSYRYDYWGQGTQVTVSS”, for which the “polyreactivity (PSR sort gate)” value is listed as “high polyreactivity”.

“QVQLVESGGGLVQAGGSLRLICAASGITFVTYAMGWYRQAPGKERELVAAISRSGGRTYYADSVKGRFTISRDNAKNTVYLQMNSLKPEDTSVYYCAAERKNKYDYWGQGTQVTVSS”: the “polyreactivity (PSR sort gate)” value is “high polyreactivity”.

Turning to “QVHLVESGGGLVQAGGSLRLSCAASGSIFAYYAMGWYRQAPGKEWEVVAAINWRVGRTYYADSVNGRFTISRDNAKNTVYLQMNSLKPEDTAVYYCAAVYRNQYRGSRFDYWGQGTQVTVSS”, the “polyreactivity (PSR sort gate)” value is “high polyreactivity”.

Take “QVQLVESGGGLVQAGGSLRLSCAASGLILYYYDMGWYRQAPGKERELVAAISWNGDDTYYADSVKGRFTISRDNAKNTVYLQMNSLKPEDTAVYYCAAEGPPQTDDYWGQGTQVTVSS”: the “polyreactivity (PSR sort gate)” value is listed as “high polyreactivity”.

Take “QVQLVESGGGLVQAGGSLRLSCAASGITFYGYTMGWYRQAPGKERELVATITRGGSTYYADSVKGRFTISRDNAKNSVYLQMNSLKPEDTAVYYCAADLKGNYYLGIARYVLYYWGQGTQVTVSS”: the “polyreactivity (PSR sort gate)” value was “low polyreactivity”.

Consider “QVQLLESGGGLVQAGGSLRLSCAASGSTFGYYTMGWYRQAPGKERVLVAGISSGGSTNYADSVKGRFTISRDNAKNTVYLQMNSLKQEDTAVYYCDTGSYSYHRGYVTYARFGYWGQGTQVTVSS”, for which the “polyreactivity (PSR sort gate)” value was “low polyreactivity”.

“QVQLVESGGRLVQAGGSLRVSCAASGSIFRIYSMGWYRQAPGKERELVATISSTGSTYYADSVKGRFTISRDNAKNSVYLQLNSQKPEDTAVYYCAALWKVSSRYWRMDYWGQGTQVTVSS”: the “polyreactivity (PSR sort gate)” value is recorded as “high polyreactivity”.

Take “QVQLVESGGGKVQAGGSLRLSCAPSGSIFFSYAMGWYRQAPGKERELVAAISGSGTSTYYADSVKGRFTISRDNAKNTVYLQMNSLKPEDTAVYYCPTDGGAAWGRYYWDYGYWGQGTQVTVSS”: the “polyreactivity (PSR sort gate)” value is listed as “low polyreactivity”.

On to “QVQLVESGGGLVQAGGSLRLSCAASGSIFETYAMGWYRQAPGKEWELVAAISRTSGRTYYADSVKGRFTISRDNAKNTVYLQMNSLKPDDTAVYYCAAVVRNPGTYDYWGHGTQVTVSS”, for which the “polyreactivity (PSR sort gate)” value is “high polyreactivity”.

In the case of “QVQLVESGGGLVQAGGSLRLSCAASGGTIAGYAMGWYRQAPGKARELVASISDGGSTNYADSVKGRFTISRDNAKNTVYLQMNSLKPEDTAVYYCAVQGSRTENYDWYYYWGQGTQVTVSS”, the “polyreactivity (PSR sort gate)” value is listed as “low polyreactivity”.

With “QVQLVESGGGLVQAGGSLRLSCAASGRIFVKYAMGWYRQATGKERELVAAISKSGGSTYYADSVKGRFTISRDNAKNTVYLQMNSLKPEDTAVYYCATRSRDQYSVSYRLDYWGQGTQVTVSW”, the “polyreactivity (PSR sort gate)” value is reported as “low polyreactivity”.

In the case of “QVQLVESGGGLVQAGGSLRLSCAASGYTFYFYAMGCYRQAPGKERELVAAITGGGTTSYADSVKGRFTISRDNAKNTVYLQMNSLKPEDTAVYYCNVLFADKSDYWGQGTQVTVSS”, the “polyreactivity (PSR sort gate)” value was “low polyreactivity”.

Regarding “QVQLVESGGGLVQAAGSLRLSCAASGRTFYRNAMGWYRQAPGKERELVAAISQSGGSTYYADSVKGRFTISRDNAKNTVYLQMNSLKPEDTAVYYWAAGNSRRVGMDYWGQGTQVTVSS”, the “polyreactivity (PSR sort gate)” value is reported as “high polyreactivity”.

As for “QVQLVESGGGLVQAGGSLRLSCAASGSIFVTYALGWYRQAPGKERELVAVLTWGGGSTYYADSVKGRFTISRDNAKNTVYLQMNSLKPEDTAVYYCAKDSYYYRRDVTVDYWGQGTQVTVSS”, the “polyreactivity (PSR sort gate)” value is recorded as “low polyreactivity”.

Turning to “QVQLVESGGGLVQAGGSLRLSCAASGFIFEPYAMGWYRQAPGKERELVAAISSGGSTYADSVKGRFTISRDNAKNTVYLQMNSLKPEDTAVYYCAVRGYWGQGTQVTVSS”, the “polyreactivity (PSR sort gate)” value is given as “low polyreactivity”.

As to “QVQLVESGGGLVQAGGSLRLICAASGRIFRYNARGWYRQAPGKERELVAAISSGGSTNYADSVKGRFTTSRDNAKNTVYLQMNSLKPEDTAVYYCNAESVHRYPGWGYDYWGQGTQVTVSS”, the “polyreactivity (PSR sort gate)” value is given as “low polyreactivity”.

Take “QVQLVESGGGLVQAGGSLRLSCAASGSTFYYYAMGWSRQAPGKERELVAGITWSGGRTYYADSVKGRFTISRDNAKNTVYLQMNSLKTEDTAVYYCAASLYTWTYQPVYYRDGYWGQGTQVTVSS”: the “polyreactivity (PSR sort gate)” value is recorded as “low polyreactivity”.

On to “QVQLVESGGRLVQAGGSLRLTCAASGRTFNYYAMGWYRQAPGKERELVAAISRSGGSTYYADSVKGRFTISRDNAKNTVYLQMNSLKPEDTAVYYCNRDRGSIYGWGQGTQVTVSS”, for which the “polyreactivity (PSR sort gate)” value is “high polyreactivity”.

Take “QVQLVESAGGLVQAGGSLRLSCAASGSTLYKYAMGWYRQAPGKETEMVATLTRTDSTNYADSVKGRFTISRDNAKNTVYIQMNSLKPEDTAVYYCAARRVYYNGYYVNVGSFYYWGQGTQVTVSS”: the “polyreactivity (PSR sort gate)” value is listed as “low polyreactivity”.

In the case of “QVQHVESGGGLVQAGGSLRLSCAASGRTFVRYAMGWSRPAPGKERELVAAISRSGVGTYYADSVKGRFTISRDNAKKTVYLQMNSLKPEDTAVYYCNALPGTQYNYWGQGTQVTVSS”, the “polyreactivity (PSR sort gate)” value was “high polyreactivity”.

“QVQLVESGGGLFQAGGSLRLSCAASGFTFARYAMGWYRQAPGKEWELVARISWSGGSTYYADSVKGRFTISRDYAKNTFYLQMYSLKPQVTEVYYCAADGWYYRYPRDDYWGQGTQVTVSS”: the “polyreactivity (PSR sort gate)” value is given as “low polyreactivity”.

Take “QVQLVESGGGLVQAGGSLRLSCAASGLIFRYNTMGWYRQAPGKERELVAAITSSGVRTYYADSVKGRFTISRDNAKNTVYLQMNSLKPEDTAVYYCAAEGKSYPWPWYFDYWGQGTQVTVSS”: the “polyreactivity (PSR sort gate)” value is “high polyreactivity”.

On to “QVQLVESGGGLVQAGGSLRLSCAASGSIFPYNAMGWYRQAPGKEMELVATISSGGSTNYADSVKGRFTISRDNAKNTVYLQMNSLKPEDTAVYYCAADVIVFYYAPNYWGDIEYGYWGQGTQVTVSS”, for which the “polyreactivity (PSR sort gate)” value is “low polyreactivity”.

In the case of “EVQLVESGGGLVQAGGSLRLSCAASGRTFIWNAMGWYRQAPGKERELVAAITRNGDSTYYADSVKGRFTISRDNAKNTVYLQMNSLKPEDTAVYYCAAYSRVFVYRTVGNYGWMNYWGQGTQVTVSS”, the “polyreactivity (PSR sort gate)” value is on record as “high polyreactivity”.

In the case of “QVQLVESGGGLVQAGGSLRLSCAASGSTFASNAMGWYRQAPGKERELVAAISRSGGTTYYADSVKGRFTISRDNAKNTVYLQMNSLKPEDTAVYYCAVYGYRFYKAVKYYYWGQGTQVTVSS”, the “polyreactivity (PSR sort gate)” value is reported as “high polyreactivity”.

For the origin of these results see the nanobody polyreactivity screen of Harvey et al. (2022).
